B1: GDNF: glial-derived neurotrophic factor, specific ligand of Ret (450-10, PeProTech) (protein, UniProt P39905 78-211, looked up)
Glial cell line-derived …: SPDKQMAVLPRRERNRQAAAANPENSRGKGRRGQRGKNRGCVLTAIHLNVTDLGLGYETKEELIFRYCSGSCDAAETTYDKILKNLSRNRRLVSDKVGQACCRPIAFDDDLSFLDDNLVYHILRKHSAKRCGCI
modifications: recombinant, PeProTech

How the values were obtained:
Type in all cases: cell-based, human
MCF7 cells [1] = assay: GDNF-induced Erk (MAPK) activation after siRNA transfection, immunoblot; details: 72 hrs after siRNA transfection, 10 ng/ml GDNF for 10 min
Method: (§1) MCF7 and T47D cells are seeded at 5×10^5/4 ml in 6 cm plates for 24 hrs. Cells are transfected with siRNAs targeting Ret (siRet1: […] siRet2: […]; Qiagen) or a control siRNA targeting LacZ ([…]) using Oligofectamine (12252-011, Invitrogen) and HiPerFect, respectively. After 72 hrs, cells are stimulated with 10 ng/ml GDNF alone (for 10 min in MCF7) or together with 100 ng/ml GFRα1 (for 30 min in T47D; rhGFRα1/Fc chimera 714-GR, R&D Systems), extracted and resolved by 12.5% SDS-PAGE electrophoresis and immunoblot analysis is performed using rabbit polyclonal antibodies against Erk (MAPK) and phospho-Erk (p-MAPK: see FIG. 7).

T47D cells [2] = assay: as above; details: 72 hrs after siRNA transfection, 10 ng/ml GDNF with 100 ng/ml GFRα1 for 30 min
Method: as §1

Ret = Ret expression after siRNA transfection (Western blot and PCR) in MCF7 cells; details: 20 nM siRNA
Method: MCF7 cells are seeded at a density of 10^5 cells/well in 6 well plates. 24 hours after seeding, cells are transfected with control lacZ siRNA or Ret siRNA (Qiagen, 96165/96166) at a final siRNA concentration of 20 nM using HiPerFect transfection reagent (Qiagen, 301705). siRNA targeting sequences are as following:
Ret9 and Ret51 protein expression is analyzed 72 hours post siRNA transfection using polyclonal antibodies from Santa Cruz (C-19 against Ret9: sc-167; C-20 against Ret51: sc-1290) and direct Western Blot analysis with 50 μg of total protein extract (FIG. 2 Panel A). […] As a control, total RNA is extracted in a parallel experiment (RNeasy, 74104, Qiagen). First-strand cDNA is synthesized using SuperScript III First-Strand Synthesis System for RT-PCR (Invitrogen, 18080-051), using random hexamer primers.

MCF7 cells [3] = assay: GDNF stimulation of Erk and JNK/SAPK phosphorylation, immunoblot; details: 100 ng/ml GDNF, 5 min to 8 hrs
Method: (§2) MCF7 and T47D cells are seeded at 3×10^6/15 ml and 3×10^6/10 ml in 15 and 10 cm plates for 2 days respectively. Cells are serum deprived (0.1% FCS) for 16 to 24 hrs or refed with normal medium. Cells are stimulated with 100 ng/ml GDNF (450-10, PeProTech) for 5, 10, 20, or 30 min 1, 4 or 8 hrs. Cell extracts are resolved by 10 or 12.5% SDS-PAGE electrophoresis and immunoblot analysis is performed using rabbit polyclonal antibodies raised against Erk (MAPK: 9102, Cell Signaling Technology) phospho-Erk (P-MAPK: […]; 9101) JNK/SAPK (9251) and phospho-JNK/phospho-SAP (Thr183/Tyr185; 9252) (see FIG. 6).

T47D cells [4] = assay: as above; details: 100 ng/ml GDNF, 5 min to 8 hrs
Method: as §2

MCF7 cells [5] = assay: Soft agar colony assay (anchorage-independent proliferation); details: 10 or 100 ng/ml GDNF alone, every week for 4 weeks
Method: (§3) MCF7 and T47D cells are treated with 10 or 100 ng/ml GDNF alone (MCF7) or together with 100 ng/ml GFRα1 (T47D) for 10 to 20 min in suspension and subsequently seeded at 10^5/2 ml in 6-well plates in a soft agar layer. Cells are treated again with GDNF alone or together with GFRα1 every week for 4 weeks in fresh medium. Colonies are stained with nitrotetrazolium blue and counted (Artek counter 880, Dynatech Laboratories).

T47D cells [6] = assay: as above; details: 10 or 100 ng/ml GDNF with 100 ng/ml GFRα1, every week for 4 weeks
Method: as §3

MCF7 cells [7] = assay: Anchorage-independent cell proliferation (polyheme assay); details: 10 ng/ml GDNF alone for 4 days, polyheme-coated plates
Method: (§4) MCF7 and T47D cells are seeded at 5×10^5/4 ml in 6 cm plates coated with polyheme (P3932, Sigma) to prevent adhesion of the cells to the substratum. Cells are treated with 10 ng/ml GDNF alone (MCF7) or together with 100 ng/ml GFRα1 (T47D) for 4 days. Cells were collected, trypsinized and counted (Vi-cell XR, Beckman Coulter).
(§5) MCF7 and T47D cells are seeded at 10^6/4 ml in 6 cm plates coated with polyheme. Cells are pretreated with 100 nM of a Ret inhibitor [repeat name of compound from earlier] or the vehicle DMSO for 1 hr, and then treated with 10 ng/ml GDNF alone (MCF7) or together with 100 ng/ml GFRα1 (T47D) for 4 days. Cells are collected, trypsinized and counted (Vi-cell XR, Beckman Coulter).

T47D cells [8] = assay: as above; details: 10 ng/ml GDNF with 100 ng/ml GFRα1 for 4 days, polyheme-coated plates
Method: as §4, §5

Molecule	GDNF-induced activation of Erk (MAPK) (MCF7 cells [1])	GDNF-induced activation of Erk (MAPK) (T47D cells [2])	Ret9 protein expression (Western blot signal) (Ret; 72 hours post transfection, antibody C-19)	Ret51 protein expression (Western blot signal) (Ret; 72 hours post transfection, antibody C-20)	Ret mRNA expression (PCR) (Ret; parallel experiment)	phosphorylation of Erk (MCF7 cells [3])	phosphorylation of JNK/SAPK (MCF7 cells [3])	phosphorylation of Erk (T47D cells [4])	phosphorylation of JNK/SAPK (T47D cells [4])	number of colonies in soft agar (MCF7 cells [5])	number of colonies in soft agar (T47D cells [6])	anchorage-independent cell proliferation (cell count) (MCF7 cells [7])	anchorage-independent cell proliferation (cell count) (T47D cells [8])
siRet2: siRNA targeting Ret, TAGGCTGGTTCTCAACCGGAA (Qiagen) (target sequence only, siRNA duplex strands not listed, further chemistry not given here)	prevents	prevents	–	–	–	–	–	–	–	–	–	–	–
siRet1: siRNA targeting Ret, targeting sequence CCGCTGGTGGACTGTAATAAT (Qiagen) (target sequence only, siRNA duplex strands not listed, further chemistry not given here)	prevents	prevents	reduction in signal	reduction in signal	reduction in Ret mRNA	–	–	–	–	–	–	–	–
B1	–	–	–	–	–	increased phosphorylation	increased phosphorylation	increased phosphorylation	increased phosphorylation	significantly increased the number of colonies in a concentration-dependent manner	significantly increased the number of colonies in a concentration-dependent manner	significantly enhances	significantly enhances

— patent US20110195072A1, “NON-NEUROENDOCRINE CANCER THERAPY” (priority 2006, published 2011)
